1 variant from IntAct's records for PubMed 19524571 can be followed below.

B1: Cyclin-dependent kinase 14 (Homo sapiens), O94921 (parent)
chain: MCDLIEPQPAEKIGKMKKLRRTLSESFSRIALKKDDTTFDEICVTKMSTRNCQGMDSVIKPLDTIPEDKKVRVQRTQSTFDPFEKPANQVKRVHSENNACINFKTSSTGKESPKVRRHSSPSSPTSPKFGKADSYEKLEKLGEGSYATVYKGKSKVNGKLVALKVIRLQEEEGTPFTAIREASLLKGLKHANIVLLHDIIHTKETLTLVFEYVHTDLCQYMDKHPGGLHPDNVKLFLFQLLRGLSYIHQRYILHRDLKPQNLLISDTGELKLADFGLARAKSVPSHTYSNEVVTLWYRPPDVLLGSTEYSTCLDMWGVGCIFVEMIQGVAAFPGMKDIQDQLERIFLVLGTPNEDTWPGVHSLPHFKPERFTLYSSKNLRQAWNKLSYVNHAEDLASKLLQCSPKNRLSAQAALSHEYFSDLPPRLWELTDMSSIFTVPNVRLQPEAGESMRAFGKNNSYGKSLSNSKH

Variants of B1 are the subject of this experiment. The note with it: with ccny_human CCNY.
As for K164R, the “effect of a mutation on the interaction” value is given as “decreasing interaction strength”.
